Experimental findings from the nanobody polyreactivity screen of Harvey et al. (2022) are described below.

The data set can be described thus: yeast display, Sf9 membrane polyspecificity reagent, FACS + sequencing; frameworks hold sequencing errors. In short, it runs like this:
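Nanobodies from a synthetic yeast display library (Saccharomyces cerevisiae BJ5465), induced 36–48 hours with galactose, were stained 1 hour at 4 °C with 10% biotinylated, detergent-solubilized Sf9 membrane reagent, enriched on streptavidin microbeads, then FACS-sorted. Anti-HA (expression) and streptavidin (reagent binding) fluorescence set low and high (top ~1%) gates. Polyreactivity labels come from the gate of origin. Genes were colony-PCR amplified, MiSeq 2 × 250 sequenced and filtered by CDR length.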
For “QVQLVESGGGLVQAGGSLRLSCAASGFTFDYYTMGWYRQAPGKEREFVAAITWNGGTTNYADSVKGRCTISRDNAKNTVYLQMNSLKPEDTALYYCADTAYWYFSNDSGRSYDYWGQGTQVTVSS”, the “polyreactivity (PSR sort gate)” value is “low polyreactivity”.

For “QVQLVESGGGLVQAGGSLRLSCAASGFTFEDNTMGGYRQAPGKERELVAAITWGGVSTYYADSVKGRFTISRDNAKKTVYLQMNSLKPEDTAVYYCARDYDVYTVFLMDYWGQGTQVTVSS”, the “polyreactivity (PSR sort gate)” value is listed as “low polyreactivity”.

Take “QVQLVESGGGLVQAGGSLRLSCAASGFTFEKYAMGWYRQAPGKERELVAAISQSAGSTYADSVKGRFTISRDNAKNTVYLQMNSLKPEDTAVYYFAARYRYPYYARYGYWGQGTQVTVSS”: the “polyreactivity (PSR sort gate)” value was “high polyreactivity”.

Regarding “QVQLVESGGGLVQAGGSLRLSCAASGFTFENYAMGWYRQAPGKEREFVAAISTRGTSTYYADSVKGRFTISRDNAKNTVYLQMNSLKPEDTAVYYCAARFYYWGQGTQVTVSS”, the “polyreactivity (PSR sort gate)” value is on record as “high polyreactivity”.

As to “QVQLVESGGGLVQAGGSLRLSCAASGFTFERYAMGWYRQAPGKERELVAAIDWRGVNTYYADSVKGRFTISRDNAKNTVYLQMNSLKPEDTAVYYCAATRPATYASYDYWGQGTQLTVSS”, the “polyreactivity (PSR sort gate)” value is “high polyreactivity”.

Consider “QVQLVESGGGLVQAGGSLRLSCAASGFTFEWYTMGWYRQAPGKERELVADISGDGSTYYADSVKGRFTISRDNAKNTVYLQMNSLKPEDTAVYYCAASFWGIAMGYWAQGTQVTVSS”, for which the “polyreactivity (PSR sort gate)” value is on record as “high polyreactivity”.

Take “QVQLVESGGGLVQAGGSLRLSCAASGFTFFAYTMGWYRQAPWKERELVAAISWSGAGTYYADSVKGRFTISRDNAKNTVYLQMNSLKPEDTAVYYCNGVPYSGFDYWGQGTQVTVSS”: the “polyreactivity (PSR sort gate)” value is “high polyreactivity”.

“QVQLVESGGGLVQAGGSLRLSCAASGFTFFFYAMGWYRQAPGKEREFVAATSWIGGGTYYADSVKGRFTISRDNAKNTVYLLMNSLKPEDTAVYYCATDLASYAVGSKYGYWGQGTQVTVSS”: the “polyreactivity (PSR sort gate)” value is “low polyreactivity”.

On to “QVQLVESGGGLVQAGGSLRLSCAASGFTFFNYAMGWYRQAPGKERELVAAISRSGGGTYYADSVKGRFTISRDNAKNTDYLQMNSLKPEDTAVYYCNKRGTHGYTYRKFDYWGQGTQVTVSS”, for which the “polyreactivity (PSR sort gate)” value was “high polyreactivity”.

Consider “QVQLVESGGGLVQAGGSLRLSCAASGFTFFPYAMGWYRQAPGKERELVATITRGGSTNYADSVKGRFTISRDNAKNSVYLQMNSLKPEDTAVYYCNIDKKTPTFDYWGQGTQVTVSS”, for which the “polyreactivity (PSR sort gate)” value is “low polyreactivity”.

For “QVQLVESGGGLVQAGGSLRLSCAASGFTFFSNAMGWYIQAPGKERELVAAITSSGGSTYADSVKGRFTISRDNAKNTVYLQMNSLKPEDTAVYYCAADAQAPPGGFKEYDYWGQGTQVTVSS”, the “polyreactivity (PSR sort gate)” value is given as “low polyreactivity”.

For “QVQLVESGGGLVQAGGSLRLSCAASGFTFFWYTMGWYRQAPGKERELVAAISDTGGSTYYADSVKGRFTISRDNAKNTVYLQMNSLKPEDTAVYYCAAQYVRYGHYYWGQGTQVTVSS”, the “polyreactivity (PSR sort gate)” value is “high polyreactivity”.

Turning to “QVQLVESGGGLVQAGGSLRLSCAASGFTFFYNAMGWYRQAPGKEREFVAAISGRGGRTYYADSVKGRFTISRDNAKNTVYLQMNSLKPEDTAVYYCNADYYPYGEYDYWGQGTQVTVSS”, the “polyreactivity (PSR sort gate)” value is listed as “high polyreactivity”.

For “QVQLVESGGGLVQAGGSLRLSCAASGFTFFYYAMGWYRQAPGKERELVARISSSGGRTYYADSVKGRFTISRDNAKNTVYLQMNSLKPEDTAVYYCNARYYYYYTRYDYWGQGTQVTVSS”, the “polyreactivity (PSR sort gate)” value is “high polyreactivity”.

For “QVQLVESGGGLVQAGGSLRLSCAASGFTFGAYAMGWYRQAPGKERELVAAITRSSTSTFYADSVKGRFTISRDNAKNTVYLQMNSLKPEDTAVYYCAARGRPRYYSYAGDYWGQGTQVTVSS”, the “polyreactivity (PSR sort gate)” value is recorded as “high polyreactivity”.

With “QVQLVESGGGLVQAGGSLRLSCAASGFTFGENAMGWYRQAPGKERELVAAITGGTDTNYADSVKGRFTISRDNAKNTVYLQMNSLKPEDTAVYYCAAYVPHFAPLGGGGGYDYWGEGTQVTVSS”, the “polyreactivity (PSR sort gate)” value is listed as “low polyreactivity”.

As for “QVQLVESGGGLVQAGGSLRLSCAASGFTFGENAMGWYRQAPWKERELVAAITSGDGTSYADSVKGRFTISRDNAKNTVYLQMNSLKPEVTAVYDCAADGGDELYYSTYDYWGQGTQVTVSS”, the “polyreactivity (PSR sort gate)” value is “low polyreactivity”.

Regarding “QVQLVESGGGLVQAGGSLRLSCAASGFTFGGNAMGWYRQAPGKERELVASITSGGSTNYADSVKGRFTISRDNAKNTVYLQMNSLKPEDTAVYYCAAARTGRARRHFDYWGQGTQVTVSS”, the “polyreactivity (PSR sort gate)” value is listed as “low polyreactivity”.

Turning to “QVQLVESGGGLVQAGGSLRLSCAASGFTFGGYAMGWYRQAPGKERELVAAISQSGGRTYYADSVKGRFTISRDHAMNTVDLQMISLKPEDTAVYYCAKPSTTYYQRGDYWGQGTQVTVSS”, the “polyreactivity (PSR sort gate)” value is “high polyreactivity”.

Turning to “QVQLVESGGGLVQAGGSLRLSCAASGFTFGGYAMGWYRQAPGKERELVAAITWSGGTTYYADSVKGRFTISRDNAKNTVYLQMNSLKPEDTAVYYCAAESTLPIIDRDDYWGQGSQVTVSS”, the “polyreactivity (PSR sort gate)” value was “low polyreactivity”.

In the case of “QVQLVESGGGLVQAGGSLRLSCAASGFTFGIYAMGWYRQAPGKERELVAAINVSDGSTYYADSVKGRFTISRDNAKNTVYLQMNILKPEDTAVYYCAAYLYVTIYTSYREYDYWGQGTQVTVSS”, the “polyreactivity (PSR sort gate)” value is “low polyreactivity”.

In the case of “QVQLVESGGGLVQAGGSLRLSCAASGFTFGLYAMGWYRQAPGKERELVASITWSGGSTYYADSVKGRFTISRDNAKNTVYLQMNSLKPEDTAVYDCAKRLYLITWAASSADDYWGQGTQVTVSS”, the “polyreactivity (PSR sort gate)” value is “low polyreactivity”.

Regarding “QVQLVESGGGLVQAGGSLRLSCAASGFTFGLYAMGWYRQAPGKERELVAVISSSGGSTYDADSVKGRFTISRDNAKNTVYLQMNSLKPEETAVYYCAAEWHDYKFDVTYDYWGQGTQVTVSS”, the “polyreactivity (PSR sort gate)” value is given as “low polyreactivity”.

Take “QVQLVESGGGLVQAGGSLRLSCAASGFTFGNNAMGWYRKAPGKERELVAAISKRGSSTYYADSVKGRFTISRDNAKNTVYLQMNSLKPEDTAVYYCAAEGRRTRYYYWGQGTQVTVSS”: the “polyreactivity (PSR sort gate)” value is “high polyreactivity”.

In the case of “QVQLVESGGGLVQAGGSLRLSCAASGFTFGNYAMGWYRQAPGKERELVAAISSRGGSTYYADSVKGRFTISRDNAKNSVYLQMNSLKPEDTAVYYCNALRLEVDMGYWGQGTQITVSS”, the “polyreactivity (PSR sort gate)” value is on record as “high polyreactivity”.

Turning to “QVQLVESGGGLVQAGGSLRLSCAASGFTFGNYAMGWYRQAPGKERELVAAISSRGGSTYYADSVKGRFTISRDNAKNTVYLQMNSLKPEDTAVYYCNALRLEVDMGYWGQGTQITVSS”, the “polyreactivity (PSR sort gate)” value is reported as “high polyreactivity”.

For the sequence “QVQLVESGGGLVQAGGSLRLSCAASGFTFGPKAMGWYRQAPVKERELVAAITFRGDSTYYADSVKVRFTISRDYAKNTVYLQMNCLKPEDTAVYYCATHDRWHHRSLPYEYWGQGTQVTVSS”, the “polyreactivity (PSR sort gate)” value is listed as “low polyreactivity”.

Consider “QVQLVESGGGLVQAGGSLRLSCAASGFTFGPNTMGWYRQAPGKERELVAAISARGGRTYYADSVKGRFTISRDNAKNTVYLQMNSLKPEDTAVYYCAAPGYVRTGVTYGGYYWGQGTQVTVSS”, for which the “polyreactivity (PSR sort gate)” value is on record as “high polyreactivity”.

With “QVQLVESGGGLVQAGGSLRLSCAASGFTFGPYAMGWYRQAPGKERELVAASSQSGGRTSYADSVKGRFTISRDNAKNTVYLPMNSLKPEDTAVYYCAKRAYGYRSIYRMDYWGQGTQVTVSS”, the “polyreactivity (PSR sort gate)” value is “high polyreactivity”.

With “QVQLVESGGGLVQAGGSLRLSCAASGFTFGRNAMGWYRQAPGKERELVASIDWSGGSTYYADSVKGRFTISRDNAKNTVYLQMNSLIPEDTAVDYCAVGPNSVGNRSYGFDYWGQGTQVTVSS”, the “polyreactivity (PSR sort gate)” value is “low polyreactivity”.
